The source of these data is PMC5888579.

The series has as its target FEN1 (human, UniProt P39748 2-380). The series is described as follows: smFRET kinetics.

Sequence of FEN1 (P39748 2-380): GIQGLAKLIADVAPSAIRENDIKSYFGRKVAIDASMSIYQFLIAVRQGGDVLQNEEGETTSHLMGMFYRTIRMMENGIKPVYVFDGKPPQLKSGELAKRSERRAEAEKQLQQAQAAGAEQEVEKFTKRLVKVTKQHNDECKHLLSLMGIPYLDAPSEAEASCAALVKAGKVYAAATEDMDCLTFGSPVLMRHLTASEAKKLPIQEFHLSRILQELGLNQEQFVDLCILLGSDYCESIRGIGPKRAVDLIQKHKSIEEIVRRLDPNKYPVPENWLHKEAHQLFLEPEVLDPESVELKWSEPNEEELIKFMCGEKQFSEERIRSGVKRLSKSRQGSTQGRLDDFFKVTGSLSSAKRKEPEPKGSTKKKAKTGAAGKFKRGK

B1: NickInternal (dsDNA)
DNA 1: TGACCGTGTTTGACGGTCGTGAGGAGGAAAGTTCCTCCTACGGCAG
DNA 2: CTGCCGTAGGAGGAACTTTCCTCCTC
DNA 3: ACGACCGTCAAACAACGGTCA
modifications: 5' phosphate at nick; biotin; iCy3 internal in template
With B1, the Kd (in general, the concentration at which binding is half-saturated) worked out at 62 ± 9 nM.
